Among the data in article PMC9396398, “Crystal structure of Ankyrin-G in complex with a fragment of Neurofascin reveals binding mechanisms required for integrity of the axon initial segment” (The Journal of Biological Chemistry, 2022) are Kd values, retold here.

One experiment deals with T1, AnkG R1-24 L343Q, L376Q (Rattus norvegicus).
T1 chain: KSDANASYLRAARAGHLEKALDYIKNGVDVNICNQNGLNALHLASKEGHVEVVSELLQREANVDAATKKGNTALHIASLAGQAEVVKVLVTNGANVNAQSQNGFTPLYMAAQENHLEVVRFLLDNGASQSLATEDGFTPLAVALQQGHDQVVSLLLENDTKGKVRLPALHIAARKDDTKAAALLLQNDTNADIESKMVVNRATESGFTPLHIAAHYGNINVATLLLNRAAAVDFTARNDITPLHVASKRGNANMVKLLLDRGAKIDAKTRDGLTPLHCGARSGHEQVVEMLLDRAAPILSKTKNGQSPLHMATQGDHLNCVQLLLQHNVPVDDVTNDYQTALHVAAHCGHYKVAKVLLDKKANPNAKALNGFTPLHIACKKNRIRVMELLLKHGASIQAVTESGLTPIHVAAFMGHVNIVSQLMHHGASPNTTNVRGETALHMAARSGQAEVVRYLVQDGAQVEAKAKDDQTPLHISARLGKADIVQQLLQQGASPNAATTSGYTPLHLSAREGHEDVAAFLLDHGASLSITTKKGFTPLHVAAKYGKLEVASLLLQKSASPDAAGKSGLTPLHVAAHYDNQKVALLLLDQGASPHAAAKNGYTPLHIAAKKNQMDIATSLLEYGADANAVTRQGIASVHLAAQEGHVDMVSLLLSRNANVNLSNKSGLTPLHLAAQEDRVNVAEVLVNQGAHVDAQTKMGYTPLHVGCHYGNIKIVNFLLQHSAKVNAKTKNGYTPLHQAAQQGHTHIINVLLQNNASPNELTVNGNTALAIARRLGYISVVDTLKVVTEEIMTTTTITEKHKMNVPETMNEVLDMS
Briefly: ITC. On the technique in general: Isothermal titration calorimetry measures the heat released or taken up as one component is titrated into another.

In the next experiment the target is T2, AnkG R6-24 (Rattus norvegicus).
T2 chain: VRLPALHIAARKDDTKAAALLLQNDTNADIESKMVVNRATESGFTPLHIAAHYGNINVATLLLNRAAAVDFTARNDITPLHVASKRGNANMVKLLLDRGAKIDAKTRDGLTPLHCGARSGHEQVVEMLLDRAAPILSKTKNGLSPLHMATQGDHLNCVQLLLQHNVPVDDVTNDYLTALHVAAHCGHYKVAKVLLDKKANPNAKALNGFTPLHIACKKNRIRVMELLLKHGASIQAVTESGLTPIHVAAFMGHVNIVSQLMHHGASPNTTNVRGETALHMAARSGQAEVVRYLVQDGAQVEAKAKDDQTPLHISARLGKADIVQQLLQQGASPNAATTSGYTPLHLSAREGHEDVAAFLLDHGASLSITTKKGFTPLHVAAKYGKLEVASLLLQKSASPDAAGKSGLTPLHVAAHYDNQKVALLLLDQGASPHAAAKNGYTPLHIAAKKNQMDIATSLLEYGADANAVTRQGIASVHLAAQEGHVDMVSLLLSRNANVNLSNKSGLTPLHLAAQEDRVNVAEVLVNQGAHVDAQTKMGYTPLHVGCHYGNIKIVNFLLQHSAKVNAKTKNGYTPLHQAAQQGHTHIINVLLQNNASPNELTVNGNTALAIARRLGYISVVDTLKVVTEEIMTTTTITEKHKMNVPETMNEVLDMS
Put plainly: ITC.

A further experiment addresses T3, AnkG R8-24 (Rattus norvegicus).
T3 chain: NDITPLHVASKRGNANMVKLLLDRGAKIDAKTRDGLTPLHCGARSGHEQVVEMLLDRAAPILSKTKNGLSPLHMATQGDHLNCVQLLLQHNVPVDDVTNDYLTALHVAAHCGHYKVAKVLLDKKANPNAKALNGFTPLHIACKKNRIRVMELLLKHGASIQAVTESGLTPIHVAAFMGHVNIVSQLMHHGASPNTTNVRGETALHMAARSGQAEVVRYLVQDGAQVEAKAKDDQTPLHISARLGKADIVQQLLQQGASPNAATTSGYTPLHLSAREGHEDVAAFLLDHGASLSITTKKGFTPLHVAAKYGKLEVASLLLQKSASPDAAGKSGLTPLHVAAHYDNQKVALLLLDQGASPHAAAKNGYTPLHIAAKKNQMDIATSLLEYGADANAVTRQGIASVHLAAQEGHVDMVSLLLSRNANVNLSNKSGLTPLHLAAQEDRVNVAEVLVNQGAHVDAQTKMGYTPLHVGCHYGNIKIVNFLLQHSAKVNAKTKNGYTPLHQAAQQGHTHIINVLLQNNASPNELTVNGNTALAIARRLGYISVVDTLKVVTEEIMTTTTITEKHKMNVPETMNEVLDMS
Put plainly: ITC.

The next experiment concerns the target AnkG R6-16 (UniProt O70511). Briefly: ITC; VP-ITC at 25 °C; 50 mM Tris, 100 mM NaCl, 1 mM EDTA, 1 mM DTT, pH 7.8; Nfasc proteins (200 μM) in the syringe, AnkG proteins (20 μM) in the cell; one-site binding model.

Sequence of AnkG R6-16 (O70511 whole entry): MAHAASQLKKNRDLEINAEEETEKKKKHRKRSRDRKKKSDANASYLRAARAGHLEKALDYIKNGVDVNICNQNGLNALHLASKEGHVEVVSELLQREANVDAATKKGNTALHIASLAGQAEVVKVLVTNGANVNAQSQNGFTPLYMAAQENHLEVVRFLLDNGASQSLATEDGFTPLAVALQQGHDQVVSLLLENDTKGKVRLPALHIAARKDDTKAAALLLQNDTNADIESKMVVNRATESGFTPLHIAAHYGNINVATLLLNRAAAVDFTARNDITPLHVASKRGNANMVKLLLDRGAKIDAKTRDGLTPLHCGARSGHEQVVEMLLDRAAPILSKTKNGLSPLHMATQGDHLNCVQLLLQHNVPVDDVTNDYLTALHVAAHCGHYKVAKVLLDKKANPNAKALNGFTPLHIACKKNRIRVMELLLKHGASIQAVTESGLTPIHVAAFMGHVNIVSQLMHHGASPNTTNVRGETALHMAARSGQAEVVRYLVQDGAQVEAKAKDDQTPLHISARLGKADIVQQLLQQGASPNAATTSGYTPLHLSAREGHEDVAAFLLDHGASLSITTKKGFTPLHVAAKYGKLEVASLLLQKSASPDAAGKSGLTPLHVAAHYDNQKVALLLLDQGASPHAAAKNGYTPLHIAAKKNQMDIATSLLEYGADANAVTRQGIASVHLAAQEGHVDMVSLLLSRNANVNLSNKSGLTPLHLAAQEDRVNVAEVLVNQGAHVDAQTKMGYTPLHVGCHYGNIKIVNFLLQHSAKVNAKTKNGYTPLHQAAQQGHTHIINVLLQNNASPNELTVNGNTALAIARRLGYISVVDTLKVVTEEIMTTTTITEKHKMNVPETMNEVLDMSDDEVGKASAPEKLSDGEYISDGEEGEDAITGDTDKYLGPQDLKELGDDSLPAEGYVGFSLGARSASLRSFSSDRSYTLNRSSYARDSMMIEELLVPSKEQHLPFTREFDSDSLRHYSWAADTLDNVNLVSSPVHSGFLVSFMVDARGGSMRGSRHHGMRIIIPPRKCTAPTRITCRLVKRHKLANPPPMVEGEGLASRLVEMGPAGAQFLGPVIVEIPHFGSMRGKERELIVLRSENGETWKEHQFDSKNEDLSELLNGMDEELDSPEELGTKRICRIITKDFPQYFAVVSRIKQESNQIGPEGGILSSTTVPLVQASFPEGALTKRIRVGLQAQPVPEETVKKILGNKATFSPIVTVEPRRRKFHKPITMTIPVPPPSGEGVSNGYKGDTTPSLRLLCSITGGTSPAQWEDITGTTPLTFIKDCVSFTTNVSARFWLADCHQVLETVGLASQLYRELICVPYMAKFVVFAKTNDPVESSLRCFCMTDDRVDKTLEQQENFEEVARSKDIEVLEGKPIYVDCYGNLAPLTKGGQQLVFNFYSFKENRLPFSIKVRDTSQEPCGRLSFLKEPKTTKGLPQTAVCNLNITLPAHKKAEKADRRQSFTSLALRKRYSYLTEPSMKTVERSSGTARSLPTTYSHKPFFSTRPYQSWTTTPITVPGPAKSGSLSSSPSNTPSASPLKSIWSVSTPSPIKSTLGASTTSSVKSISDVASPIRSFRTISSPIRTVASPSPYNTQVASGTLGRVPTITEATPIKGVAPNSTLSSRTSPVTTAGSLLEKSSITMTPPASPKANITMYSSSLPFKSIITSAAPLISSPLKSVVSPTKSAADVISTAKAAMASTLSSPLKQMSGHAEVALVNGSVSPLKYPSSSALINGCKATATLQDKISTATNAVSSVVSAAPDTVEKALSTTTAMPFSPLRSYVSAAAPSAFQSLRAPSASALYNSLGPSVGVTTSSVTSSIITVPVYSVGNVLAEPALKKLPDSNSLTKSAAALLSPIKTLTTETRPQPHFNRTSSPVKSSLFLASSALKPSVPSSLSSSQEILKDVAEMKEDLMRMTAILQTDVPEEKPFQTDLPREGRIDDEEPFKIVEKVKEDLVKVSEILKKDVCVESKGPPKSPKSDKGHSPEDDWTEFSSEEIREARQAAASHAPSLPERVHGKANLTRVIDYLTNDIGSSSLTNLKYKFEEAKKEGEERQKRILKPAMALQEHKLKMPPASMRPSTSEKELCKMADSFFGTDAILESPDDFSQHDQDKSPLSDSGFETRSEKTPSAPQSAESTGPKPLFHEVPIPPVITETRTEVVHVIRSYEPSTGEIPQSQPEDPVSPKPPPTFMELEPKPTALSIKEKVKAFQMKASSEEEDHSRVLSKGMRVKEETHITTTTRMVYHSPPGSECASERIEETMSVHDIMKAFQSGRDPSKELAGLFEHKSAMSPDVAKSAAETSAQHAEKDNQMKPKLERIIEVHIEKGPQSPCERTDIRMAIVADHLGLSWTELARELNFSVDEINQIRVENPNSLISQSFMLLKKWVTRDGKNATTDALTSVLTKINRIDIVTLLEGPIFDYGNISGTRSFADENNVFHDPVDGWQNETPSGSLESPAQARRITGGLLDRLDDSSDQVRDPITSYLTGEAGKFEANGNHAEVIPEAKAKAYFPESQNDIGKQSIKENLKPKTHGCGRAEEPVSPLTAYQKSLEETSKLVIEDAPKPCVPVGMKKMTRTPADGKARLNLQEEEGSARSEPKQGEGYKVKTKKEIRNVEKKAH

B1: Nfasc ankyrin-binding domain (ABD, residues 1187-1214) (domain or fragment, UniProt P97685 1187-1214, looked up)
chain: SDDSLVDYGEGGEGQFNEDGSFIGQYTV
notes: also called Nfasc ABD; source: E. coli BL21 (DE3), purified (Ni-NTA, size-exclusion chromatography)
In the case of B1, the Kd amounted to 2000 nM in the experiment with AnkG R1-24 L343Q, L376Q; 130 nM with AnkG R6-24; 1100 nM with AnkG R8-24; 290 nM with AnkG R6-16.

The Kd is the concentration at which binding is half-saturated. A higher Kd goes with weaker binding.
